# In patent US20140255414A1 (PROBIODRUG, published 2014):
# Square brackets hold non-standard residues; d marks the D form. pGlu = O=C1CC[C@@H](C(=O)O)N1; PEG = not defined here
# T1: Aβ(pE11-18)-PEG peptide (reading uncertain)
# T1 construct: The PEG attachment is not described further
# T1 peptide: [pGlu]VHHQKLV-{PEG}
# T2: gonadoliberin pyroglutamate-peptide (UniProt P01148 24-33, N-terminal pyroglutamate)
# T2 peptide (looked up): QHWSYGLRPG
# T3: big gastrin pyroglutamate-peptide (UniProt P01350 59-92, N-terminal pyroglutamate)
# T3 peptide (looked up): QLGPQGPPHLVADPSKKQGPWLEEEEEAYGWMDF
# T4: CCL8 (known as MCP-2) pyroglutamate-peptide (UniProt P80075 24-99, limits assumed, N-terminal pyroglutamate)
# T4 sequence (peptide, looked up): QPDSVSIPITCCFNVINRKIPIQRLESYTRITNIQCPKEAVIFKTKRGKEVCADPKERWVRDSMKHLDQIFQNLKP
# T5: orexin A pyroglutamate-peptide (UniProt O43612 34-66, N-terminal pyroglutamate)
# T5 peptide (looked up): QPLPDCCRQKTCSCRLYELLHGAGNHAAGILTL
# T6: Aβ(pE11-30) peptide (N-terminal pyroglutamate (Aβ position 11))
# T6 construct: Synthesized peptide; Amine-coupled to a CM5 chip for SPR, or adsorbed to the microplate for the direct ELISA
# T6 peptide: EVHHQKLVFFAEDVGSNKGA
# B1: monoclonal mouse anti Aβ11(pE) antibody Aβ 13-11-6 (clone 13), Deposit No. DSM ACC 3100 (antibody, V domains shown)
# VH: QVQLQQPGTELVKPGASVKLSCKASGFTFTSYWMHWVRQRPGQGLEWIGEINPSNGRTNYNEKFKSKATLTVDKSSSTAYMQLSSLTSEDSEVYYCARGDLAWDWSAYWGQGTLVTVSA
# VL: DIVMSQSPSSLAVSAGEKVTMSCKSSQSLFYSRTRKNYLAWYQQKPGQSPKLLIYWASTRESGVPDRFTGSGSGTDFTLTISSVQAEDLAVYYCKQSYNLWSFGGGTKLEIKR
# notes: The KSCN-eluted and glycine-HCl-eluted preparations are the same molecule; also called pEVHH-59025 13-11-6; mAb mouse anti Aβ11(pE)
# Key:
# Aβ(pE11-18)-PEG peptide [1] = biological target: T1, Aβ(pE11-18)-PEG peptide; assay: ITC at 20 °C, peptide titrated into antibody eluted with KSCN gradient (KD=1/KA)
# Protocol: For the ITC experiment, the peptide Aβ(pE11-18)-PEG was used because the hydrophilic PEG group imparts hydrophilic properties and so it was possible to dissolve the peptide directly in ITC buffer. Former experiments with Aβ(pE11-20) could only be performed with 1-2% DMSO, due to the strong hydrophobicity of the peptide it was necessary to dissolve it with DMSO which could have an effect on the ITC binding properties. At first the antibody was dialyzed against ITC buffer (150 mM NaCl, 25 mM Na₂HPO₄, 25 mM KH₂PO₄, 1 mM EDTA, pH=7.1) over night at 4° C. The lyophilised peptide, stored at −20° C., was dissolved in identical ITC buffer pH=7.1 which was used for antibody dialysis. Both antibody and antigen must be in identical solutions, otherwise large heats of dilution will mask the desired observation. Before the ITC experiment, the concentration of antibody was determined by UV/VIS spectroscopy (see section 1.3.1). […] Furthermore the heat of reaction was determined which was only generated by dilution of the antigen through the titration into ITC buffer (pH=7.1). […]
# (§1) To characterize the binding of anti Aβ11(pE) antibody at the Aβ(pE11-18)-PEG peptide the method of Isothermal Titration calorimetry (ITC) was used (see section 1.3.4). The antibody which was eluted from protein G column with KSCN-gradient (pH 7.0) and 0.1 M glycine-HCl (pH 2.7) was analyzed.
# [2] = biological target: T2, gonadoliberin pyroglutamate-peptide; assay: SPR, peptide immobilized on CM5 chip (data not shown)
# [3] = biological target: neurotensin pyroglutamate-peptide (UniProt P30990 151-163, N-terminal pyroglutamate); assay: as above
# [4] = biological target: T3, big gastrin pyroglutamate-peptide; assay: as above
# [5] = biological target: T4, CCL8 (known as MCP-2) …; assay: as above
# [6] = biological target: CCL2 (known as MCP-1) pyroglutamate-peptide (UniProt P13500 24-99, limits assumed, N-terminal pyroglutamate); assay: as above
# [7] = biological target: T5, orexin A pyroglutamate-peptide; assay: as above
# Aβ(pE11-30) peptide = biological target: T6, Aβ(pE11-30) peptide; assay: SPR (Biacore 3000), purified antibody 0.04-10 µg/ml, 30 µl/min for 300 s, CM5 chip with immobilized Aβ(pE11-30); signal taken at the end of the dissociation phase, non-coated flow cell subtracted
# Protocol: Then the coupling of peptide followed. At first 10 μg/ml peptide Aβ(pE11-30) in 10 mM potassiumdihydrogenorthophosphate pH 6 was injected with a flow rate of 10 μl/min for 5 min. Because of the low signal rise the peptide was applied again with a higher concentration diluted in a solution with pH 5. 50 μg/ml peptide Aβ(pE11-30) in 10 mM sodium acetate pH 5 was injected with a flow rate of 10 μl/min for 20 min. A mild acid pH was chosen for coupling to provide a pre-concentration of the peptide (positive net charge) at the sensor surface (carboxyl group negative net charge) by electrostatic attraction. The covalent bond of the peptide was formed by the reaction of the two amino acids lysine (at peptide position 16 and 28) with the activated carboxyl group at chip surface. Excess reactive ester groups were deactivated with 1 M ethanolamine pH 8.5 with a flow rate of 10 μl/min for 10 min. Non-immobilized peptides were removed by injection of 0.1 M HCl (3×10 μl) and subsequently the chip was rinsed over night with running buffer. At the end the signal was about 1000 Response Units (RU) whereby the chip surface was saturated with the peptide.
# For the measurement of anti Aβ11(pE) antibody concentration a CM5 chip, which was coated with Aβ(pE11-30) was used. The chip surface was saturated with the peptide and the signal was about 1000 Response Units (RU) (see section 1.3.3.1). […]
# Aβ(pE11-18)-PEG peptide [8] = biological target: T1, Aβ(pE11-18)-PEG peptide; assay: ITC at 20 °C, peptide titrated into antibody eluted with 0.1 M glycine-HCl pH 2.7
# Protocol: For the ITC experiment, the peptide Aβ(pE11-18)-PEG was used because the hydrophilic PEG group imparts hydrophilic properties and so it was possible to dissolve the peptide directly in ITC buffer. Former experiments with Aβ(pE11-20) could only be performed with 1-2% DMSO, due to the strong hydrophobicity of the peptide it was necessary to dissolve it with DMSO which could have an effect on the ITC binding properties. At first the antibody was dialyzed against ITC buffer (150 mM NaCl, 25 mM Na₂HPO₄, 25 mM KH₂PO₄, 1 mM EDTA, pH=7.1) over night at 4° C. The lyophilised peptide, stored at −20° C., was dissolved in identical ITC buffer pH=7.1 which was used for antibody dialysis. Both antibody and antigen must be in identical solutions, otherwise large heats of dilution will mask the desired observation. Before the ITC experiment, the concentration of antibody was determined by UV/VIS spectroscopy (see section 1.3.1). At first the antibody with e.g. 5.13 μM (see Table 4) was added into the sample cell and the reference cell was filled with distilled water. Then the antigen was injected into the sample cell with e.g. 81.78 μM (see Table 4). The antigen should be generally in twofold excess to the antibody, bearing in mind that an antibody has two binding sites the antigen was in the cell at least in fourfold excess to the antibody. The 30 injections (1×2 μl and 29×10 μl) were made with a 4-min interval between subsequent injections. The measurement of heat of reaction was performed at 20° C. Furthermore the heat of reaction was determined which was only generated by dilution of the antigen through the titration into ITC buffer (pH=7.1). Therefore the antigen was injected into the sample cell filled with ITC buffer. […]
# as §1
# Chain of CCL2 (known as MCP-1) pyroglutamate-peptide (P13500 24-99 limits assumed): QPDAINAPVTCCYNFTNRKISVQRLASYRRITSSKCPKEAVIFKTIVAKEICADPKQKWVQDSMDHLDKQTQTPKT
binder,measurement,setting,value
B1,Kd,Aβ(pE11-18)-PEG peptide [1],0.0787 µM
same,binding result,[2],no binding (tested: 1 µg/ml antibody)
same,binding result,[3],no binding (tested: 1 µg/ml antibody)
same,binding result,[4],no binding (tested: 1 µg/ml antibody)
same,binding result,[5],no binding (tested: 1 µg/ml antibody)
same,binding result,[6],no binding (tested: 1 µg/ml antibody)
same,binding result,[7],no binding (tested: 1 µg/ml antibody)
same,EC50 (read off the curve),Aβ(pE11-30) peptide,~1 mg/L
same,-TΔS,Aβ(pE11-18)-PEG peptide [8],-5.69 kJ/mol
same,Ka,Aβ(pE11-18)-PEG peptide [8],9.5e+06 M⁻¹
same,Stoichiometry (N),Aβ(pE11-18)-PEG peptide [8],1.01
